Measured values taken from patent publication US20250154226A1, “LONG-ACTING GLP-1/GLP-2 DUAL AGONIST COMPOUND” (CHENGDU AODA BIOTECHNOLOGY CO., LTD, priority 2022, published 2025).
Starred links: 1 amine or outer side, 2 acyl side, 3 side chain; linkers in the order of their positions; H or OH if unused. Non-standard residues stand in square brackets, D forms with d. Residues, ends and D or L forms follow the SMILES beside them. Groups on a side chain read outwards from the residue. No end group written: not given here. *: point of attachment. C18 diacid = O=C(O)CCCCCCCCCCCCCCCCC(=O)*; γGlu = O=C(O)[C@H](CCC(=O)[*:2])N[*:1]; AEEA = NCCOCCOCC(=O)O; Aib = CC(C)(N)C(=O)O; AEA = NCCOCC(=O)O

T1: GLP-2R (Homo sapiens, UniProt O95838)
T1 construct: expressed in transfected cells; host or cells: CHO-K1
T1 sequence (O95838 1-553): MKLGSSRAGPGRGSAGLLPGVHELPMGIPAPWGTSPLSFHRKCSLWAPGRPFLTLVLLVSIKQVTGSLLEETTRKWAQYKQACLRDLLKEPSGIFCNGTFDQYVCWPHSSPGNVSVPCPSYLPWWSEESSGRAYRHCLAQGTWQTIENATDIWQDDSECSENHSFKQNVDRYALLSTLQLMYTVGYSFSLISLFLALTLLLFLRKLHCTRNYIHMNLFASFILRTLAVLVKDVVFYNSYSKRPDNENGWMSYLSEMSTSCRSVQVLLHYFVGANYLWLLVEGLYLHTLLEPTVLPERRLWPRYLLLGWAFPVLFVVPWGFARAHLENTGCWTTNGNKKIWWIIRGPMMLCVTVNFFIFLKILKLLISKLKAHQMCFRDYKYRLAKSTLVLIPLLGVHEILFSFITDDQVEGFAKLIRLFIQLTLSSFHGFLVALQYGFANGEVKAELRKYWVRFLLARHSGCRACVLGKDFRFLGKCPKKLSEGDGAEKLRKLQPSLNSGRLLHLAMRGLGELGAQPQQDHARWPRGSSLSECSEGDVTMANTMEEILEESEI


How the values were obtained:
GLP-2R = molecular target: T1, GLP-2R; experiment: Determination of GLP-2 activity: cAMP chemiluminescence (RLU) in CHO-K1 cell line stably expressing GLP-2R; assay type: cell-based; details: read-out: GLP-2 activity [EC50 (nmol)]
Procedure: (§1) GLP-2R, under the stimulation of its specific agonist, can activate the intracellular adenylate cyclase pathway, and increase the level of cAMP, finally leading to the generation and release of insulin. The stimulation of the cell lines stably transfected with […] by the agonist to be tested can lead to rapid increase in the intracellular cAMP level, and the relative light units (RLUs) after stimulating the cells at each dose are determined by chemiluminescence method to calculate the EC50 of the agonist. This method for determining activity is commonly used for GLP-2 receptor agonist activity analysis at home and abroad.
CHO-K1 cell line stably expressing GLP-2R was stimulated with the agonist at different concentrations. The EC50 value of the agonist was calculated by determining the relative light units after stimulating the cells at each dose.

GLP-1R = molecular target: T2, GLP-1R (Homo sapiens, UniProt P43220); experiment: Determination of GLP-1 activity: cAMP chemiluminescence (RLU) in CHO-K1 cell line stably expressing GLP-1R; assay type: cell-based; details: read-out: GLP-1 activity [EC50 (pmol)]
T2 construct: expressed in transfected cells; host or cells: CHO-K1
T2 sequence (P43220 24-463, species assumed): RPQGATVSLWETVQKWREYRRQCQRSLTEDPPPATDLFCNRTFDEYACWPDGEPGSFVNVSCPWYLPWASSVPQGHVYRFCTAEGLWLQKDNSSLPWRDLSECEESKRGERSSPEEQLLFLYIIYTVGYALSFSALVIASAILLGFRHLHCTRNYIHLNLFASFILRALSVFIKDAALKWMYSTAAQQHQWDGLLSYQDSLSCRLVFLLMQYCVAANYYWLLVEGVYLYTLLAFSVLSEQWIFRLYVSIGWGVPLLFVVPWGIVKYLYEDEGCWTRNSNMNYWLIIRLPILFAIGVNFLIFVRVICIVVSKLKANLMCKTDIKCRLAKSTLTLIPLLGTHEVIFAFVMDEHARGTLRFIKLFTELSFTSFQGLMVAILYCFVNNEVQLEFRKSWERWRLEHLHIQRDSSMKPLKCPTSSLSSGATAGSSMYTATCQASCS
Procedure: as §1, with “GLP-1R,” for “GLP-2R,”, “GLP-1” for “GLP-2”
CHO-K1 cell line stably expressing GLP-1R was stimulated with the agonist at different concentrations. The EC50 value of the agonist was calculated by determining the relative light units after stimulating the cells at each dose.

[1] = molecular target: glucagon-like peptide-1 (GLP-1) receptor
[2] = molecular target: glucagon-like peptide-2 (GLP-2) receptor

Row | EC50 (GLP-2R) [nM] | EC50 (GLP-1R) [nM] | GLP-1 activity [EC50 (pmol)] [1] [pmol] | GLP-2 activity [EC50 (nmol)] [2] [nmol] | Molecule
1 | 4.7 | 0.0601 | – | – | CC[C@H](C)[C@H](NC(=O)[C@H](Cc1ccccc1)NC(=O)[C@H](CC(=O)O)NC(=O)[C@H](CCCNC(=N)N)NC(=O)[C@H](C)NC(=O)[C@H](C)NC(=O)[C@H](CCC(N)=O)NC(=O)[C@H](CCCCNC(=O)COCCOCCNC(=O)CC[C@H](NC(=O)CCCCCCCCCCCCCCCCC(=O)O)C(=O)O)NC(=O)[C@H](CC(=O)O)NC(=O)[C@H](CC(C)C)NC(=O)[C@@H](NC(=O)[C@@H](NC(=O)[C@H](C)NC(=O)[C@H](CC(C)C)NC(=O)[C@H](CCC(=O)O)NC(=O)[C@H](CO)NC(=O)[C@@H](NC(=O)[C@H](Cc1ccccc1)NC(=O)[C@H](CO)NC(=O)CNC(=O)[C@H](CCC(=O)O)NC(=O)C(C)(C)NC(=O)[C@@H](N)Cc1c[nH]cn1)[C@@H](C)O)[C@@H](C)O)[C@@H](C)CC)C(=O)N[C@@H](C)C(=O)N[C@@H](Cc1c[nH]c2ccccc12)C(=O)N[C@@H](CC(C)C)C(=O)N[C@H](C(=O)N[C@@H](CCC(N)=O)C(=O)N[C@@H](Cc1c[nH]cn1)C(=O)N[C@@H](CCCCN)C(=O)N[C@H](C(=O)N[C@H](C(=O)N[C@@H](CC(=O)O)C(N)=O)[C@@H](C)O)[C@@H](C)CC)[C@@H](C)CC [Compound 3, His-Aib-Glu-Gly-Ser-Phe-Thr-Ser-Glu-Leu-Ala-Thr-Ile-Leu-Asp-Lys(AEEA-γGlu-octadecanedioic acid)-Gln-Ala-Ala-Arg-Asp-Phe-Ile-Ala-Trp-Leu-Ile-Gln-His-Lys-Ile-Thr-Asp-NH2] (H-H[Aib]EGSFTSELATILDK([AEEA-γGlu-C18 diacid])QAARDFIAWLIQHKITD-NH2)
2 | 5.51 | 0.0686 | – | – | CC[C@H](C)[C@H](NC(=O)[C@H](Cc1ccccc1)NC(=O)[C@H](CC(=O)O)NC(=O)[C@H](CCCNC(=N)N)NC(=O)[C@H](C)NC(=O)[C@H](C)NC(=O)[C@H](CCC(N)=O)NC(=O)[C@H](CCCCNC(=O)COCCNC(=O)CC[C@H](NC(=O)CCCCCCCCCCCCCCCCC(=O)O)C(=O)O)NC(=O)[C@H](CC(=O)O)NC(=O)[C@H](CC(C)C)NC(=O)[C@@H](NC(=O)[C@@H](NC(=O)[C@H](C)NC(=O)[C@H](CC(C)C)NC(=O)[C@H](CCC(=O)O)NC(=O)[C@H](CO)NC(=O)[C@@H](NC(=O)[C@H](Cc1ccccc1)NC(=O)[C@H](CO)NC(=O)CNC(=O)[C@H](CCC(=O)O)NC(=O)C(C)(C)NC(=O)[C@@H](N)Cc1c[nH]cn1)[C@@H](C)O)[C@@H](C)O)[C@@H](C)CC)C(=O)N[C@@H](C)C(=O)N[C@@H](Cc1c[nH]c2ccccc12)C(=O)N[C@@H](CC(C)C)C(=O)N[C@H](C(=O)N[C@@H](CCC(N)=O)C(=O)N[C@@H](Cc1c[nH]cn1)C(=O)N[C@@H](CCCCN)C(=O)N[C@H](C(=O)N[C@H](C(=O)N[C@@H](CC(=O)O)C(N)=O)[C@@H](C)O)[C@@H](C)CC)[C@@H](C)CC [Compound 2, His-Aib-Glu-Gly-Ser-Phe-Thr-Ser-Glu-Leu-Ala-Thr-Ile-Leu-Asp-Lys(PEG1CH2CO-γGlu-octadecanedioic acid)-Gln-Ala-Ala-Arg-Asp-Phe-Ile-Ala-Trp-Leu-Ile-Gln-His-Lys-Ile-Thr-Asp-NH2] (H-H[Aib]EGSFTSELATILDK([AEA-γGlu-C18 diacid])QAARDFIAWLIQHKITD-NH2; N-terminus assumed)
3 | – | – | 60.1 | 4.7 | H[Aib]EGSFTSELATILDK([AEEA-γGlu-C18 diacid])QAARDFIAWLIQHKITD-NH2 (N-terminus assumed; SMILES CC[C@H](C)[C@H](NC(=O)[C@H](Cc1ccccc1)NC(=O)[C@H](CC(=O)O)NC(=O)[C@H](CCCNC(=N)N)NC(=O)[C@H](C)NC(=O)[C@H](C)NC(=O)[C@H](CCC(N)=O)NC(=O)[C@H](CCCCNC(=O)COCCOCCNC(=O)CC[C@H](NC(=O)CCCCCCCCCCCCCCCCC(=O)O)C(=O)O)NC(=O)[C@H](CC(=O)O)NC(=O)[C@H](CC(C)C)NC(=O)[C@@H](NC(=O)[C@@H](NC(=O)[C@H](C)NC(=O)[C@H](CC(C)C)NC(=O)[C@H](CCC(=O)O)NC(=O)[C@H](CO)NC(=O)[C@@H](NC(=O)[C@H](Cc1ccccc1)NC(=O)[C@H](CO)NC(=O)CNC(=O)[C@H](CCC(=O)O)NC(=O)C(C)(C)NC(=O)[C@@H](N)Cc1c[nH]cn1)[C@@H](C)O)[C@@H](C)O)[C@@H](C)CC)C(=O)N[C@@H](C)C(=O)N[C@@H](Cc1c[nH]c2ccccc12)C(=O)N[C@@H](CC(C)C)C(=O)N[C@H](C(=O)N[C@@H](CCC(N)=O)C(=O)N[C@@H](Cc1c[nH]cn1)C(=O)N[C@@H](CCCCN)C(=O)N[C@H](C(=O)N[C@H](C(=O)N[C@@H](CC(=O)O)C(N)=O)[C@@H](C)O)[C@@H](C)CC)[C@@H](C)CC) [Compound 3]
4 | – | – | 60 | 4.33 | H[Aib]EGSFTSELATILDK([PEG3CH2CO-γGlu-C18 diacid])QAARDFIAWLIQHKITD-NH2 [Compound 4]
5 | – | – | 68.7 | 5.51 | H[Aib]EGSFTSELATILDK([PEG1CH2CO-γGlu-C18 diacid])QAARDFIAWLIQHKITD-NH2 [Compound 2]
6 | – | – | 94.7 | 6.04 | H[Aib]EGSFTSELATILDK([γGlu-C18 diacid])QAARDFIAWLIQHKITD-NH2 (N-terminus assumed; SMILES CC[C@H](C)[C@H](NC(=O)[C@H](Cc1ccccc1)NC(=O)[C@H](CC(=O)O)NC(=O)[C@H](CCCNC(=N)N)NC(=O)[C@H](C)NC(=O)[C@H](C)NC(=O)[C@H](CCC(N)=O)NC(=O)[C@H](CCCCNC(=O)CC[C@H](NC(=O)CCCCCCCCCCCCCCCCC(=O)O)C(=O)O)NC(=O)[C@H](CC(=O)O)NC(=O)[C@H](CC(C)C)NC(=O)[C@@H](NC(=O)[C@@H](NC(=O)[C@H](C)NC(=O)[C@H](CC(C)C)NC(=O)[C@H](CCC(=O)O)NC(=O)[C@H](CO)NC(=O)[C@@H](NC(=O)[C@H](Cc1ccccc1)NC(=O)[C@H](CO)NC(=O)CNC(=O)[C@H](CCC(=O)O)NC(=O)C(C)(C)NC(=O)[C@@H](N)Cc1c[nH]cn1)[C@@H](C)O)[C@@H](C)O)[C@@H](C)CC)C(=O)N[C@@H](C)C(=O)N[C@@H](Cc1c[nH]c2ccccc12)C(=O)N[C@@H](CC(C)C)C(=O)N[C@H](C(=O)N[C@@H](CCC(N)=O)C(=O)N[C@@H](Cc1c[nH]cn1)C(=O)N[C@@H](CCCCN)C(=O)N[C@H](C(=O)N[C@H](C(=O)N[C@@H](CC(=O)O)C(N)=O)[C@@H](C)O)[C@@H](C)CC)[C@@H](C)CC) [Compound 1]
7 | – | – | 72.8 | 5.54 | H[Aib]EGSFTSELATILDK([PEG4CH2CO-γGlu-C18 diacid])QAARDFIAWLIQHKITD-NH2 [Compound 5]
8 | – | – | 79.5 | 4.62 | H[Aib]EGSFTSELATILDK([PEG5CH2CO-γGlu-C18 diacid])QAARDFIAWLIQHKITD-NH2 [Compound 6]
